Reference: US9296810 (Novartis, dated 2016)

Target: T1, hen egg white lysozyme (hen, UniProt P00698 19-147, biotinylated (HEL-b); sites not stated)
T1 construct: also called lyzozyme; HEL-b (biotinylated)
Assay: yeast display selection

T1 sequence (P00698 19-147 limits assumed): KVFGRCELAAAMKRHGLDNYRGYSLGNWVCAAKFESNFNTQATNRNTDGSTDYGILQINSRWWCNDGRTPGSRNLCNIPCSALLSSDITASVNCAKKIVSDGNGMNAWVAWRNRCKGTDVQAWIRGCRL

Binder	binding result
SEQ ID NO 65 (designed binder) VSDVPRDLEVVAATPTSLLISWDAPAVTVRYYRITYGERLREGGSQEFTVPGSKSTATISRAGERVDYTITVYAVTGRGESPASSKPISINYAQYP	binds
SEQ ID NO 62 (designed binder) VSDVPRDLEVVAATPTSLLISWDAPAVTVRYYRITYGEAASSRLRQEFTVPGSKSTATISSYSGLVDYTITVYAVTGRGESPASSKPISINYYSSY	binds
SEQ ID NO 63 (designed binder) VSDVPRDLEVVAATPTSLLISWDAPAVTVRYYRITYGERERQHGYQEFTVPGSKSTATISRYRRRVDYTITVYAVTGRGESPASSKPISINYEPGY	binds
SEQ ID NO 61 (designed binder) VSDVPRDLEVVAATPTSLLISWDAPAVTVRYYRITYGEPRSEEGEQEFTVPGSKSTATISRRYSLVDYTITVYAVTGRGESPASSKPISINYYSSR	binds
SEQ ID NO 66 (designed binder) VSDVPRDLEVVAATPTSLLISWDAPAVTVRYYRITYGEYYRSYYQEFTVPGSKSTATISSYEPPVDYTITVYAVTGRGESPASSKPISINYRRYL	binds
SEQ ID NO 80 (designed binder) VSDVPRDLEVVAATPTSLLISWDAPAVTVRYYRITYGESRRSYPQEFTVPGSKSTATISSSHRSVDYTITVYAVTGRGESPASSKPISINYRSYL	binds
SEQ ID NO 58 (designed binder) VSDVPRDLEVVAATPTSLLISWDAPAVTVRYYRITYGESSHGRSQEFTVPGSKSTATISSSSSRVDYTITVYAVTGRGESPASSKPISINYGYRG	binds

Next, values leading:

binding result	Binder
binds	SEQ ID NO 59 (designed binder) VSDVPRDLEVVAATPTSLLISWDAPAVTVRYYRITYGEYGYSRSQEFTVPGSKSTATISYSSPRVDYTITVYAVTGRGESPASSKPISINYGSRY
binds	SEQ ID NO 57 (designed binder) VSDVPRDLEVVAATPTSLLISWDAPAVTVRYYRITYGEGSLLYHSQEFTVPGSKSTATISYGPASVDYTITVYAVTGRGESPASSKPISINYRRRY
binds	SEQ ID NO 64 (designed binder) VSDVPRDLEVVAATPTSLLISWDAPAVTVRYYRITYGERRSHRERQEFTVPGSKSTATISRRRRRVDYTITVYAVTGRGESPASSKPISINYSRRR
binds	SEQ ID NO 60 (designed binder) VSDVPRDLEVVAATPTSLLISWDAPAVTVRYYRITYGEYRYAYAYGQEFTVPGSKSTATISRSSPRVDYTITVYAVTGRGESPASSKPISINYPRRY
binds	SEQ ID NO 67 (designed binder) VSDVPRDLEVVAATPTSLLISWDAPAVTVRYYRITYGEYYARPEYQEFTVPGSKSTATISYYEPEVDYTITVYAVTGRGESPASSKPISINYRSYP
binds	SEQ ID NO 55 (designed binder) VSDVPRDLEVVAATPTSLLISWDAPAVTVRYYRITYGEGQGAGASQEFTVPGSKSTATISGAEPAVDYTITVYAVTGRGESPASSKPISINYGPRY
binds	SEQ ID NO 56 (designed binder) VSDVPRDLEVVAATPTSLLISWDAPAVTVRYYRITYGEYLYHHGQEFTVPGSKSTATISYRSAPVDYTITVYAVTGRGESPASSKPISINYRHER
binds	SEQ ID NO 69 (designed binder) VSDVPRDLEVVAATPTSLLISWDAPAVTVRYYRITYGEYRSSSYYQEFTVPGSKSTATISYPSERVDYTITVYAVTGRGESPASSKPISINYQSSA
